Test results as given in US20250154235A1 (NEURIMMUNE, published 2025).
Ends that are not written are not given here.

Columns and labels:
[1] = molecular target: T1, TTR 15-mer peptide EEEFVEGIYKVEIDT (human, also: covalently bound to a membrane); assay: pepscan membrane of 15-mer TTR peptides (peptides 15 and 16)
T1 peptide: EEEFVEGIYKVEIDT
Procedure: (§1) Additional peptides including selected mutations were also plotted on the membrane. The membrane was blocked in Roti blocking buffer overnight at 4° C., incubated first with the anti-TTR antibody diluted in blocking buffer for 2 h at RT, then with an HRP-coupled anti human IgG antibody for 45 min at RT (dilution 1/20000 in TBS). The reaction was developed with luminol and imaged by luminescence.

[2] = molecular target: T2, TTR 15-mer peptide GLTTEEEFVEGIYKV (human, also: covalently bound to a membrane); assay: as above
T2 peptide: GLTTEEEFVEGIYKV
Procedure: as §1

[3] = molecular target: misfolded-aggregated recombinant V30M-TTR (human, UniProt P02766 21-147); assay: direct ELISA, misfolded-aggregated recombinant V30M-TTR coated at 10 ug/ml
Procedure: (§2) The antibody capacity to bind TTR and/or misfolded, misassembled and/or aggregated forms of TTR was evaluated by means of direct ELISA assays at varying antibody concentrations. This allows to determinate for each antibody its half maximal effective concentration (EC50) in this assay, which is a commonly used proxy for the antibody binding affinity, see FIG. 2A-2C. […] Antibodies against TTR were diluted in PBS at 11 different concentrations ranging from 4 to 400 nM, and incubated in the ELISA plates overnight at 4° C. After 3 washes with PBS-T, ELISA plates were incubated with a HRP-coupled, human IgG-specific secondary antibody for 1 h at RT (1/4000 dilution). After 3 washes with PBS-T, the ELISA reactions were developed with TMB for exactly 10 min at RT and quantified by measuring the optical density at 450 nm (OD450 nm).
(§3) Subsequently, the antibody's EC50s were determined by fitting the data with a non-linear regression using the least square method in order to estimate the antibody binding affinity under these conditions.

[4] = molecular target: mouse TTR protein contained in wild-type mouse liver extract (mouse, UniProt P07309 21-147); assay: western blot, wild-type mouse liver extract 10 ug total protein
Procedure: FIGS. 4A-4D: Specificity for aggregated TTR on western blot. [0047] […] To prevent dissociation of the high molecular weight aggregates, the aggregated TTR sample was crosslinked with glutaraldehyde (1%, 5 min) prior to loading on the gel.
The binding specificity and selectivity of anti-TTR antibodies was evaluated by means of western blot, see FIG. 4A-4D. In brief, human wild-type TTR protein (300 ng) in native or misfolded-aggregated conformations, and wild-type mouse liver extract (10 μg total protein) were loaded on a SDS-PAGE gel and transferred onto a nitrocellulose membrane using a semi-dry transfer system. […] After 4 washes with PBS-T for 5 min at RT, the membrane was incubated with the appropriate secondary antibody (HRP-coupled; 1/10000 dilution in blocking buffer) for 1 h at RT. After 3 washes with PBS-T and a final one in PBS, the membrane was developed with luminol and the signal intensity quantified by measuring luminescence. Shortly before use, the misfolded-aggregated TTR sample was submitted to crosslinking with glutaraldehyde (1%, 5 min, 37° C.) to prevent the dissociation of TTR aggregates during the preparation process for SDS-PAGE. In contrast, the native TTR sample was not crosslinked before use, such that the TTR homotetramer (which is the native TTR conformation under physiological conditions) almost entirely dissociated into monomers and dimers.

[5] = molecular target: T3, misfolded-aggregated human wild-type TTR (human, UniProt P02766 21-147); assay: direct ELISA, misfolded-aggregated human wild-type TTR coated at 10 ug/ml
Procedure: as §2, §3

[6] = molecular target: T4, bovine serum albumin (BSA) (bovine, UniProt P02769 25-607); assay: direct ELISA, BSA coated at 10 ug/ml
T4 construct: Control antigen in the ELISA
T4 sequence (P02769 25-607 limits assumed): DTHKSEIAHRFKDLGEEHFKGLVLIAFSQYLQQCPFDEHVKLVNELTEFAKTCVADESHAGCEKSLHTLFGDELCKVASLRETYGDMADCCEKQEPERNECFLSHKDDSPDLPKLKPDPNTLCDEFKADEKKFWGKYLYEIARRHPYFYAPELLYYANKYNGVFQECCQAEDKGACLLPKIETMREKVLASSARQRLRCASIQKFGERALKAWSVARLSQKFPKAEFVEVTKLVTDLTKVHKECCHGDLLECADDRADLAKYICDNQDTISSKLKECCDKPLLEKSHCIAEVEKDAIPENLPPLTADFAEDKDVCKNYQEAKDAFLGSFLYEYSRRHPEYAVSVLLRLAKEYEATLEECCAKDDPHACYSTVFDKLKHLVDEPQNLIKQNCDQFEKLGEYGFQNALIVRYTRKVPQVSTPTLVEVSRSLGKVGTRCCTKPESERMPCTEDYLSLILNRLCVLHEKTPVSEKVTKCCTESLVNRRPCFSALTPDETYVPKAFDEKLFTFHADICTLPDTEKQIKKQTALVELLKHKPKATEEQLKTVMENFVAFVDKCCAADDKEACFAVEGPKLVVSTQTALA
Procedure: as §2, §3

[7] = molecular target: native TTR-V30M (human, UniProt P02766 21-147); assay: SPR (ProteOn XPR36), antibody captured by anti-human IgG-Fc, TTR in solution 3.2-316 nM, Langmuir 1:1 fit
Procedure: (§4) SPR analysis was performed on a BioRad ProteOn XPR36 fitted with a GLM sensor chip. An anti-human antibody directed against the Fc gamma domain was covalently coupled to the detection surface and saturated with the antibody under investigation. […] The antibody-antigen association was analyzed during 180 s and the dissociation during 600 s. A Langmuir binding model (simple 1:1 association) was used to fit the data and derive the association (ka) and dissociation (kd) constants, and the affinity (KD).
(§5) An anti-human IgG-Fcγ antibody was covalently coated on the detection surfaces, and used to capture the human TTR-specific antibodies.

[8] = molecular target: T3, misfolded-aggregated human wild-type TTR; assay: as above
Procedure: as §4, §5

[9] = molecular target: native TTR-L55P (human, UniProt P02766 21-147); assay: as above
Procedure: as §4, §5

[10] = molecular target: T4, bovine serum albumin (BSA); assay: dot blot on nitrocellulose, NI-301.mur35G11 10 nM, anti-mouse IgG2a-HRP detection
Procedure: FIGS. 6A-6C: Absence of binding to human plasma TTR on dot blot. [0051] […] [0052] Samples 1-6:150 ng of 1) aggregated wt-TTR, 2) native wt-TTR, 3) BSA, 4) native V30M-TTR, 5) native L55P-TTR and 6) native Y78F-TTR. [0053] Samples 7-18:2 μl of plasma collected from 7-10) controls (n=4), 11-14) asymptomatic mutation carriers (n=4) and 15-18) FAP patients (n=4).

[11] = molecular target: T5, TTR 15-mer peptide TSESGELHGLTTEEE (human, also: covalently bound to a membrane); assay: pepscan membrane of 15-mer TTR peptides (peptides 13 and 14)
T5 peptide: TSESGELHGLTTEEE
Procedure: as §1

[12] = molecular target: T6, TTR 15-mer peptide GELHGLTTEEEFVEG (human, also: covalently bound to a membrane); assay: as above
T6 peptide: GELHGLTTEEEFVEG
Procedure: as §1

[13] = molecular target: T7, TTR 15-mer peptide ADDTWEPFASGKTSE (human, also: covalently bound to a membrane); assay: pepscan membrane of 15-mer TTR peptides (peptides 9, 10 and 11)
T7 peptide: ADDTWEPFASGKTSE
Procedure: as §1

[14] = molecular target: T8, TTR 15-mer peptide FRKAADDTWEPFASG (human, also: covalently bound to a membrane); assay: as above
T8 peptide: FRKAADDTWEPFASG
Procedure: as §1

[15] = molecular target: T9, TTR 15-mer peptide WEPFASGKTSESGEL (human, also: covalently bound to a membrane); assay: as above
T9 peptide: WEPFASGKTSESGEL
Procedure: as §1

[16] = molecular target: T10, TTR-E42G peptide sequence WGPFA (41-45) (human); assay: pepscan membrane, mutant peptide
T10 construct: Present in a mutant 15-mer spot of the pepscan membrane
T10 peptide: WGPFA
Procedure: as §1

B1: NI-301.59F1 (antibody, V domains shown)
VH: EVQLVESGGGLVQPGGSLRLSCVASGFTFSNYWMSWVRQAPGKGLEWVANINQDSEKYYVDSVKGRFAISRDNSKNSLYLQMNSLRVEDTGVYYCARDRYCSGGRCSRGNNWFDPWGQGTLVTVSS
VL: not shown
Does B1 bind [1]?
Result: binds

Does B1 bind [2]?
Result: binds

And the EC50 [3]?
The EC50 was 15.5 nM.

Does B1 bind [4]?
Result: no binding (tested: 50 nM)

What about the EC50 [5] of the same binder?
The EC50 was 3 nM.

Does B1 bind [6]?
Result: no binding (tested: up to 400 nM)

What about the Kd [7] of the same binder?
The Kd was 16 nM.

And the koff [7]?
The koff was 0.00022 s⁻¹.

What about the kon [7] of the same binder?
The kon was 13000 M⁻¹ s⁻¹.

And the Kd [8]?
Its Kd is 3.5 nM.

And the koff [8]?
The koff was 0.00034 s⁻¹.

What about the kon [8] of the same binder?
The kon was 97000 M⁻¹ s⁻¹.

What about the Kd [9] of the same binder?
The Kd was 3.1 nM.

And the koff [9]?
The koff was 0.00015 s⁻¹.

And the kon [9]?
Its kon is 51000 M⁻¹ s⁻¹.

B2: mouse chimeric antibody NI-301.mur35G11 (antibody, V domains shown)
VH: EVQLVESGGGLVQPGGSLRLSCVASGFTFSSYAMSWVRQVPGKGLEWVSSISGSGDTTKYTDSVKGRFTISRDNSKNTVFLQMSSLRAEDTALYYCVKDGSGRIDPFALWGQGTMVTVSS
VL: EIVMTQSPLSLPVTLGQPASISCRSSRSLVYSDGNIYLNWFQQRPGQSPRRLIYKVSNRDSGVPDRFSGSGSDTDFTLRISRVEAEDVGVYYCMQGTHWPRTFGQGTKVEIK
notes: detected with anti-mouse IgG2a secondary antibody; also called murine chimeric anti-TTR antibody
Does B2 bind [10]?
Result: no binding (tested: 10 nM)

B3: NI-301.35G11 (antibody, V domains shown)
VH: B2 VH
VL: B2 VL
notes: also called NI.35G11
Does B3 bind [4]?
Result: no binding (tested: 50 nM)

Does B3 bind [11]?
Result: binds

Does B3 bind [12]?
Result: binds

Does B3 bind [6]?
Result: no binding (tested: up to 400 nM)

B4: NI-301.37F1 (antibody, V domains shown)
VH: QVQLQESGPGLVKPSETLSLTCSVSGGSIISRSSYWGWIRQPPGKGLEWIGGIYHSGNTYDNPSLKSRLTMSVDTSKNQFSLNLRSVTAADTAVYYCARIVPGGDAFDIWGQGTMVTVSS
VL: DIQMTQSPSSLSASVGDRVTIACRASQSVGTYLNWYQQKRGKAPKLLIFAASSLQSGVPSRFSGSGSGTDFTLTISSLQPEDFATYYCQQSYSSPPTFGQGTKVEIK
Which results are given for B4?
binding result [13]: binds; binding result [14]: binds; binding result [15]: binds; binding result [4]: no binding (tested: 50 nM); binding result [16]: no binding (tested: 50 nM); binding result [6]: no binding (tested: up to 400 nM)
